B1: Kv1.2–2.1 paddle chimera channel, α subunit (other)
chain: MTVATGDPVDEAAAHPGHPQDTYDPEADHECCERVVINISGLRFETQLKTLAQFPETLLGDPKKRMRYFDPLRNEYFFDRNRPSFDAILYYYQSGGRLRRPVNVPLDIFSEEIRFYELGEEAMEMFREDEGYIKEEERPLPENEFQRQVWLLFEYPESSGPARIIAIVSVMVILISIVSFCLETLPIFRDENEDMHGGGVTFHTYSQSTIGYQQSTSFTDPFFIVETLCIIWFSFEFLVRFFACPSKAGFFTNIMNIIDIVAIIPYYVTIFLTESNKSVLQFQNVRRVVQIFRIMRILRIFKLSRHSKGLQILGQTLKASMRELGLLIFFLFIGVILFSSAVYFAEADERDSQFPSIPDAFWWAVVSMTTVGYGDMVPTTIGGKIVGSLCAIAGVLTIALPVPVIVSNFNYFYHRETEGEEQAQYLQVTSCPKIPSSPDLKKSRSASTISKSDYMEIQEGVNNSNEDFREENLKTANCTLANTNYVNITKMLTDV

How the values were obtained:
[1] = target: Kv channel auxiliary β subunit (rat) (UniProt P62483); assay: negative staining electron microscopy; Kv chimera in lipid nanodiscs diluted to ~0.03 mg/ml, 0.7% uranyl formate; 2D class averages
[2] = target: Kv channel auxiliary β subunit (rat) (UniProt P62483); assay: cryo-EM structure; Kv chimera α4β4 complex in MSP1E3D1 lipid nanodiscs (3:1:1 POPC:POPG:POPE); 0.7 mg/ml in 20 mM HEPES-KOH pH 7.5, 150 mM KCl, 2 mM TCEP; gold grids; C4 symmetry imposed
[3] = target: the molecule itself; assay: as above

Molecule	stoichiometry N [1]	stoichiometry N [2]	stoichiometry N [3]
Kv channel auxiliary β subunit (from UniProt P62483 36-367) (natural protein)	4	4	–
B1	–	–	4

Reference: PMC6093707, “Single-particle cryo-EM structure of a voltage-activated potassium channel in lipid nanodiscs” (eLife, 2018)
